This passage reports IC50 and EC50 results from paper PMC12302718, “Molecular basis for Gβγ-SNARE-mediated inhibition of synaptic vesicle fusion” (The Journal of Biological Chemistry, 2025).

Where no end group is shown, it is not given here.

In general, IC50 refers to the concentration needed to halve the response being measured. A low value points to greater potency. A word on the EC50: it is the concentration at which the effect is half-maximal.

Holding throughout (details): both partners purified
The target in assay [1] is T1, biotinylated SNAP25 (UniProt P60880 1-206, biotin (site not stated)).
T1 construct: SNAP25, wild type; also called full-length SNAP25; synaptosomal-associated protein-25; source: expressed and purified as described (12, 39)
Nature of the assay: AlphaScreen or HTRF; competition: Gγ peptides 1 nM-100 μM; 20 nM biotinylated SNAP25 on streptavidin donor beads, 180 nM His6-Gβ1γ2 on nickel chelate acceptor beads; 20 mM HEPES pH 7.0, 10 mM NaCl, 40 mM KCl, 5% glycerol, 0.01% Triton X-100; 27 °C.

The target of assay [2] is T2, His-tagged soluble Gβ1γ2 (C68S) (UniProt P62873 1-340; P59768 1-71, C68S).
T2 construct: G-protein subunit β1 (Gβ1); G-protein subunit γ2 (Gγ2) with C68S (soluble); it is entered on Gβ1; For MST the His tag was labelled with Red-tris-NTA; also called full-length Gβ1γ2; His6-Gβ1γ2; source: Sf9 cells, purified as previously described (69)
Nature of the assay: AlphaScreen or HTRF; competition: SNAP25 C-terminal peptide (189-206) against biotinylated full-length SNAP25 for His6-Gβ1γ2. In general terms: Alpha assays give light when donor and acceptor beads are brought close together.

Assay [3] has as its target T3, His-tagged soluble Gβ1γ2 (C68S) (UniProt P62873;P59768, C68S).
T3 construct: G-protein subunit β1 (Gβ1); G-protein subunit γ2 (Gγ2) with C68S (soluble); it is entered on Gβ1; For MST the His tag was labelled with Red-tris-NTA; also called full-length Gβ1γ2; His6-Gβ1γ2; source: Sf9 cells, purified as previously described (69)
Description: AlphaScreen or HTRF; competition: Nb5 0.4 nM-1.26 μM; biotinylated SNAP25 with an EC80 concentration of His-tagged Gβ1γ2.

The target in assay [4] is T3, His-tagged soluble Gβ1γ2 (C68S). Nature of the assay: AlphaScreen or HTRF; direct binding: 20 nM biotinylated Nb5 with 0.1 nM-1 μM His-tagged Gβ1γ2; concentration-response curves fitted for EC50.

B1: Gγ13, res. 16–30 peptide (peptide)
peptide: LKYQLAFQREMASKT
modifications: on the array: C-terminus coupled to the membrane
notes: Gγ13, human, residues 16-30; source: synthetic peptide: SPOT array on membrane (ResPep SL)
B1: the IC50 in assay [1] turned out to be 9460 nM.
On to KTRIDEANQRATKMLGSG (peptide, UniProt P60880 189-206, looked up, also called C-terminal SNAP25 peptide) [SNAP25 C-terminal peptide (residues 189–206)], for which, in assay [2], the IC50 was 1840 nM.

B2: Gγ8, res. 52–66 peptide (peptide)
peptide: PVPAAENPFRDKRLF
modifications: on the array: C-terminus coupled to the membrane
notes: Gγ8, human, residues 52-66; source: synthetic peptide: SPOT array on membrane (ResPep SL)
The molecule B2 returned an IC50 in assay [1] of 640 nM.

B3: Gγ3, res. 56–70 peptide (peptide)
peptide: ITPVPTSENPFREKK
modifications: on the array: C-terminus coupled to the membrane
notes: Gγ3, human, printed as residues 56-70; source: synthetic peptide: SPOT array on membrane (ResPep SL)
As to B3, the IC50 in assay [1] was determined as 7010 nM.

B4: Nanobody-5 (Nb5) (VHH)
VHH: QVQLVESGGGLVQAGGSLRLSCAASGSIFSINAMGWYRQAPGKQRELVAAITRGGRTNYADSVKGRFTLSRDNAKNTVYLQMNSLKPEDTAVYYCNVGRSRGYWGQGTQVTVSS
notes: as the chain of m17; source: expressed and purified as described previously (53); plasmid a gift of the Palczewski laboratory
In assay [3], B4 yielded an IC50 of 24.6 nM.

B5: biotinylated Nb5 (VHH)
VHH: B4 VHH
notes: also called Nanobody-5; source: expressed and purified as described previously (53); plasmid a gift of the Palczewski laboratory
The molecule B5 showed an EC50 in assay [4] of 3.72 nM.

B6: Gγ12, res. 7–21 peptide (peptide)
peptide: STNNIAQARRTVQQL
modifications: on the array: C-terminus coupled to the membrane
notes: Gγ12, human, residues 7-21; source: synthetic peptide: SPOT array on membrane (ResPep SL)
Turning to B6, the IC50 in assay [1] came to 2910 nM.

B7: Gγ2, res. 52–66 peptide (peptide)
peptide: TPVPASENPFREKKF
modifications: on the array: C-terminus coupled to the membrane
notes: Gγ2, human, residues 52-66; also called Gγ2 peptide 18 (by the array's scheme of 15-mers shifted by three); source: synthetic peptide: SPOT array on membrane (ResPep SL)
Turning to B7, the IC50 in assay [1] came out at 12600 nM.

B8: Gγ3, res. 13–27 peptide (peptide)
peptide: IGQARKMVEQLKIEA
modifications: also: C-terminus coupled to the membrane
notes: Gγ3, human, residues 13-27; source: synthetic peptide: SPOT array on membrane (ResPep SL)
On to B8, for which the IC50 in assay [1] was 4040 nM.

B9: Gγ2, res. 1–15 peptide (peptide)
peptide: MASNNTASIAQARKL
modifications: on the array: C-terminus coupled to the membrane
notes: Gγ2, human, residues 1-15; also called Gγ2 N-terminal peptide; Gγ2 amino-terminal peptide; source: synthetic peptide: SPOT array on membrane (ResPep SL)
In turn, B9 registered an IC50 in assay [1] of 540 nM.

B10: Gγ1, res. 1–15 peptide (peptide)
peptide: MPVINIEDLTEKDKL
notes: Gγ1, human, residues 1-15; also called Gγ1 N-terminal peptide; source: peptide stock in DMSO
As for B10, the IC50 in assay [1] is > 100000 nM.

B11: Gγ5, res. 49–63 peptide (peptide)
peptide: LTGVSSSTNPFRPQK
modifications: on the array: C-terminus coupled to the membrane
notes: Gγ5, human, residues 49-63; source: synthetic peptide: SPOT array on membrane (ResPep SL)
In turn, B11 yielded an IC50 in assay [1] of 1720 nM.

B12: Gγ10, res. 4–18 peptide (peptide)
peptide: GASASALQRLVEQLK
modifications: on the array: C-terminus coupled to the membrane
notes: Gγ10, human, residues 4-18; source: synthetic peptide: SPOT array on membrane (ResPep SL)
In assay [1], B12 registered a concentration for half-maximal inhibition (IC50) of 430 nM.
